{"source": "the RNAGym collection of RNA variant scans (doi:10.1073/pnas.2313332121)", "parents": {"B1": {"name": "TPR 5TU (parent)", "chain": "GGAUCUUCUCGAUCUAACAAAAAAGACAAAUCUGCCACAAAGCUUGAGAGCAUCUUCGGAUGCAGAGGCGGCAGCCUUCGGUGGCGCGAUAGCGCCAACGUUCUCAACUAUGACACGCAAAACGCGUGCUCCGUUGAAUGGAGUUUAUCAUG"}}, "note": "Variants at the floor of the assay were thinned out."}
{"variants_of": "B1", "test": "polymerase ribozyme fitness, log enrichment relative to wild type (log ratio); higher = more active; in vitro selection for triplet polymerase activity", "outline": "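To select mutant libraries of each subunit of a heterodimeric triplet polymerase ribozyme, built by PCR and transcribed, each was annealed with a biotinylated primer, partner subunit and triplets, then incubated frozen at −7 °C. Extended constructs were gel-excised, captured on streptavidin beads and amplified by RT-PCR, in one round carried out in triplicate. Illumina sequencing of input and output libraries kept genotypes with ≥10 input reads and ≥1 read per output. Fitness is the base-2 logarithm of genotype enrichment relative to wild-type enrichment, from inverse-variance-weighted replicate averages.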"}
{"variant": "C5G C14G G48C C57A A73C C87U C118U A121G C123U G140C", "polymerase ribozyme fitness (log ratio)": "≤ -4.2"}
{"variant": "C5G G34A C38U C43U G83A", "polymerase ribozyme fitness (log ratio)": "≤ -4.2"}
{"variant": "C5A A16U A24U C35A U56A C85G U109G U144C", "polymerase ribozyme fitness (log ratio)": "≤ -4.2"}
{"variant": "C5A A17C G88A G117U", "polymerase ribozyme fitness (log ratio)": -3.46}
{"variant": "C5A U56A G58A C72U C87U U109G G136A U144C", "polymerase ribozyme fitness (log ratio)": -3.93}
{"variant": "C5G A12G A21C A26U C38G U77A C118U", "polymerase ribozyme fitness (log ratio)": "≤ -4.2"}
{"variant": "C5G A39G G88A C131G", "polymerase ribozyme fitness (log ratio)": "≤ -4.2"}
{"variant": "C5G C18A C87G G143A", "polymerase ribozyme fitness (log ratio)": "≤ -4.2"}
{"variant": "C5A C103A", "polymerase ribozyme fitness (log ratio)": -1.35}
{"variant": "C5A U7C A22U C103G", "polymerase ribozyme fitness (log ratio)": -2.38}
{"variant": "C5A A16C G50A C76U G86C U144G", "polymerase ribozyme fitness (log ratio)": "≤ -4.2"}
{"variant": "C5G U55A C93U C118A", "polymerase ribozyme fitness (log ratio)": -3.5}
{"variant": "C5A U7C C18G U55A G58A A89C", "polymerase ribozyme fitness (log ratio)": -1.54}
{"variant": "U4G A19C G58U C69U C96A", "polymerase ribozyme fitness (log ratio)": -0.414}
{"variant": "C5G U9G G86A", "polymerase ribozyme fitness (log ratio)": -4}
{"variant": "C5G G50U C57U G92C A120G", "polymerase ribozyme fitness (log ratio)": -2.75}
{"variant": "C5G U13C A17C G83U U134C A137C", "polymerase ribozyme fitness (log ratio)": "≤ -4.2"}
{"variant": "C5A U61A U102G", "polymerase ribozyme fitness (log ratio)": "≤ -4.2"}
{"variant": "U4G A24U G62U C87U A89U", "polymerase ribozyme fitness (log ratio)": -3.44}
{"variant": "C5G U13C C18U G46U C108U A122G", "polymerase ribozyme fitness (log ratio)": "≤ -4.2"}
{"variant": "C5A A19U G86C", "polymerase ribozyme fitness (log ratio)": -3.47}
{"variant": "C5G U13A A23U A52C C87A C105U A107G", "polymerase ribozyme fitness (log ratio)": "≤ -4.2"}
{"variant": "C5A A49U C57A", "polymerase ribozyme fitness (log ratio)": -0.832}
{"variant": "C5G A28G A30C C36U A47U C57U C85A A91U C118U A120G C125G A142G", "polymerase ribozyme fitness (log ratio)": "≤ -4.2"}
{"variant": "C5A U9A A41G C76G A91U G126A G136A", "polymerase ribozyme fitness (log ratio)": "≤ -4.2"}
{"variant": "C5A C27U C75A A142G U146G", "polymerase ribozyme fitness (log ratio)": "≤ -4.2"}
{"variant": "C5G A12U U31A A41U C54U U56A G88A U127C A137C G141A", "polymerase ribozyme fitness (log ratio)": "≤ -4.2"}
{"variant": "U4G U31G G50C G68A C75A G86U C95U U101A", "polymerase ribozyme fitness (log ratio)": "≤ -4.2"}
{"variant": "C5G U53G C54A C96U U135A", "polymerase ribozyme fitness (log ratio)": -3.79}
{"variant": "C5A U45C G58U U82C G84A", "polymerase ribozyme fitness (log ratio)": -3.97}
{"variant": "U4G A49G C87G", "polymerase ribozyme fitness (log ratio)": "≤ -4.2"}
{"variant": "U4G C54G C95G", "polymerase ribozyme fitness (log ratio)": -3.63}
{"variant": "U4G A12G A17G C93U G141C", "polymerase ribozyme fitness (log ratio)": -3.94}
{"variant": "C5G A29U A64U G86U A150G", "polymerase ribozyme fitness (log ratio)": "≤ -4.2"}
{"variant": "U4G A21U U31A G84U A115C", "polymerase ribozyme fitness (log ratio)": -3.65}
{"variant": "C5G U9C A16C A28G A30U C32G C35A G59U G92U C105U G143C", "polymerase ribozyme fitness (log ratio)": "≤ -4.2"}
{"variant": "C5A A26U A52G G86A G88C A113U G141A", "polymerase ribozyme fitness (log ratio)": "≤ -4.2"}
{"variant": "U4C U53A G92C C114A A120G", "polymerase ribozyme fitness (log ratio)": "≤ -4.2"}
{"variant": "C5G A22U G58U A60U A64U G83C", "polymerase ribozyme fitness (log ratio)": "≤ -4.2"}
{"variant": "U4G A41C G48C A60U A97G A107U", "polymerase ribozyme fitness (log ratio)": "≤ -4.2"}
{"variant": "U4G A97U", "polymerase ribozyme fitness (log ratio)": 0.0622}
{"variant": "C5A C54U C87U U148C", "polymerase ribozyme fitness (log ratio)": -2.76}
{"variant": "U4C U31C C76G C116G", "polymerase ribozyme fitness (log ratio)": "≤ -4.2"}
{"variant": "C5G C54U U56A C99U", "polymerase ribozyme fitness (log ratio)": -1.99}
{"variant": "U4G A24G A47C C51A C54A C76G U82G G86U A115G", "polymerase ribozyme fitness (log ratio)": "≤ -4.2"}
{"variant": "C5G C85A", "polymerase ribozyme fitness (log ratio)": -1.7}
{"variant": "C5A A24G A64C G68A C76U C79U G83C U90A C95G A115U A138G", "polymerase ribozyme fitness (log ratio)": "≤ -4.2"}
{"variant": "C5A A28U U55A C57G C96U G141U", "polymerase ribozyme fitness (log ratio)": "≤ -4.2"}
{"variant": "C5A A41C C54U C85A C103A G117A G133C A137U", "polymerase ribozyme fitness (log ratio)": "≤ -4.2"}
{"variant": "C5G U9C A16C A28G A30U C32G C35A G59U G92U C105U", "polymerase ribozyme fitness (log ratio)": "≤ -4.2"}
{"variant": "C5G C18U A21C G86A C105A C123G", "polymerase ribozyme fitness (log ratio)": "≤ -4.2"}
{"variant": "C5A", "polymerase ribozyme fitness (log ratio)": 0.273}
{"variant": "C5G", "polymerase ribozyme fitness (log ratio)": -0.157}
{"variant": "C5G U7G A12C A22U U90C U144A", "polymerase ribozyme fitness (log ratio)": "≤ -4.2"}
{"variant": "U4C U55A", "polymerase ribozyme fitness (log ratio)": -0.767}
{"variant": "U4G A23U U44G C51U C76G C96U U148C", "polymerase ribozyme fitness (log ratio)": "≤ -4.2"}
{"variant": "U4G U7G U13G C43A C54U U78G G94C", "polymerase ribozyme fitness (log ratio)": "≤ -4.2"}
{"variant": "U4G A17U C51U A52U C57A C75G G83U G117U G136U", "polymerase ribozyme fitness (log ratio)": "≤ -4.2"}
{"variant": "C5G C38A G58U", "polymerase ribozyme fitness (log ratio)": -1.06}
{"variant": "C5G C79A C96A", "polymerase ribozyme fitness (log ratio)": "≤ -4.2"}
{"variant": "U4G G94A A115U U151G", "polymerase ribozyme fitness (log ratio)": "≤ -4.2"}
{"variant": "C5A C69A G84A U104G C125U G126A A142C", "polymerase ribozyme fitness (log ratio)": "≤ -4.2"}
{"variant": "U4G A106G", "polymerase ribozyme fitness (log ratio)": -0.112}
{"variant": "C5G U7C A16C C27U C32G A49C U53G C125A A137U G143C", "polymerase ribozyme fitness (log ratio)": "≤ -4.2"}
{"variant": "C5A U44A A73U C79U C85U G126U", "polymerase ribozyme fitness (log ratio)": "≤ -4.2"}
{"variant": "C5A A28G C35G A37U C85G C96G C103G U151A", "polymerase ribozyme fitness (log ratio)": -3.65}
{"variant": "C5G C85U A142U", "polymerase ribozyme fitness (log ratio)": -1.45}
{"variant": "U4G A49U C57U U82G A91U", "polymerase ribozyme fitness (log ratio)": "≤ -4.2"}
{"variant": "C5G C54U G84A U127G", "polymerase ribozyme fitness (log ratio)": "≤ -4.2"}
{"variant": "C5A C57U G81C G94C C108A G143C", "polymerase ribozyme fitness (log ratio)": "≤ -4.2"}
{"variant": "C5G C35U G80U C95U U104A", "polymerase ribozyme fitness (log ratio)": "≤ -4.2"}
{"variant": "C5A A20C C35A G62A C76A C96G G140A G143C", "polymerase ribozyme fitness (log ratio)": "≤ -4.2"}
{"variant": "C5G A21G U55A C57U A147C", "polymerase ribozyme fitness (log ratio)": -0.914}
{"variant": "C5G C87U", "polymerase ribozyme fitness (log ratio)": -0.787}
{"variant": "C5G C87A", "polymerase ribozyme fitness (log ratio)": "≤ -4.2"}
{"variant": "U4G U9C A23U C43A U56G C87U U111G C132U", "polymerase ribozyme fitness (log ratio)": "≤ -4.2"}
{"variant": "C5G A29G G46U A60G", "polymerase ribozyme fitness (log ratio)": "≤ -4.2"}
{"variant": "U4G A40C A137G", "polymerase ribozyme fitness (log ratio)": -1.84}
{"variant": "U4G A21C C93G", "polymerase ribozyme fitness (log ratio)": -1.92}
{"variant": "C5G G50A U61G G62A A66C C96A U146A", "polymerase ribozyme fitness (log ratio)": "≤ -4.2"}
{"variant": "C5G G50C C85U", "polymerase ribozyme fitness (log ratio)": -3.69}
{"variant": "C5G C27U C38G G81A U104C A115C", "polymerase ribozyme fitness (log ratio)": "≤ -4.2"}
{"variant": "C5A U6G U13G U53A C116G G126U", "polymerase ribozyme fitness (log ratio)": -3.78}
